The chains are these.
B1: FEM1A (parent)
chain: NIVEYLIQEQPGQEQVAGGEAQPG
B2: HMOX1 (parent)
chain: YHIYVALEEEIERNKESPVFAPVY
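Also: lentivirally expressed fusions sorted by FACS into six bins by GFP to DsRed ratio, PSI derived from sequencing read proportions per bin multiplied by bin number.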

Variants of B1 are the subject of one data set. The data set can be described thus: protein stability index of a GFP-peptide fusion (GPS, HEK-293T) (PSI 1-6); higher = more stable. The conditions noted are these: c terminus: a fixed tail appended.
On to NIVEYLIQEQPGQEQVAGGEAIPG [Q22I], for which the protein stability index is 3.66.
Still for that read-out and setting: next, NIVEYLIQEQPGQEQVAGGEADPG [Q22D]: 4.56.
On to NIVEYLIQEQPGQEQVAGGEAHPG [Q22H], for which the protein stability index was found to be 3.94.
On the same count and under the same terms, next, NIVEYLIQEQPGQEQVAGGEACPG [Q22C]: 4.58; NIVEYLIQEQPGQEQVAGGEANPG [Q22N]: 4.22.
On the same count and under the same terms, next, NIVEYLIQEQPGQEQVAGGEAAPG [Q22A]: 4.1; NIVEYLIQEQPGQEQVAGGEAEPG [Q22E]: 4.82.
On the same count and under the same terms, next, NIVEYLIQEQPGQEQVAGGEAGPG [Q22G]: 4.33; NIVEYLIQEQPGQEQVAGGEATPG [Q22T]: 3.91.
On to NIVEYLIQEQPGQEQVAGGEALPG [Q22L], for which the protein stability index came to 4.16.
Turning to NIVEYLIQEQPGQEQVAGGEAPPG [Q22P], the protein stability index was 4.02.
Take NIVEYLIQEQPGQEQVAGGEASPG [Q22S]: the protein stability index stood at 4.53.
The same measure, in the same setting: under NIVEYLIQEQPGQEQVAGGEAVPG [Q22V] stands 4.35; under NIVEYLIQEQPGQEQVAGGEAYPG [Q22Y], 2.78; under NIVEYLIQEQPGQEQVAGGEAWPG [Q22W], 2.51.
In the case of NIVEYLIQEQPGQEQVAGGEAFPG [Q22F], the protein stability index was determined as 3.24.
Same read-out and setting: next, NIVEYLIQEQPGQEQVAGGEAMPG [Q22M]: 4.35.
The same measure, in the same setting: under NIVEYLIQEQPGQEQVAGGEAKPG [Q22K] stands 4.08; under NIVEYLIQEQPGQEQVAGGEARPG [Q22R], 3.94; under NIVEYLIQEQPGQEQVAGGEAQPC [G24C], 4.17.
Same read-out and setting: under NIVEYLIQEQPGQEQVAGGEAQPL [G24L] stands 4.05; under NIVEYLIQEQPGQEQVAGGEAQPE [G24E], 4.03.
For NIVEYLIQEQPGQEQVAGGEAQPA [G24A], the protein stability index is 3.67.
Still for that read-out and setting: next, NIVEYLIQEQPGQEQVAGGEAQPQ [G24Q]: 4.37; NIVEYLIQEQPGQEQVAGGEAQPY [G24Y]: 3.51; NIVEYLIQEQPGQEQVAGGEAQPM [G24M]: 3.86.
Still for that read-out and setting: under NIVEYLIQEQPGQEQVAGGEAQPT [G24T] stands 4.17; under NIVEYLIQEQPGQEQVAGGEAQPV [G24V], 3.29.
The same measure, in the same setting: next, NIVEYLIQEQPGQEQVAGGEAQPK [G24K]: 3.94; NIVEYLIQEQPGQEQVAGGEAQPR [G24R]: 3.98.
On to NIVEYLIQEQPGQEQVAGGEAQPW [G24W], for which the protein stability index stood at 2.86.
The same measure, in the same setting: under NIVEYLIQEQPGQEQVAGGEAQPN [G24N] stands 4.29; under NIVEYLIQEQPGQEQVAGGEAQPP [G24P], 4.12.
Still for that read-out and setting: under NIVEYLIQEQPGQEQVAGGEAQPF [G24F] stands 3.76; under NIVEYLIQEQPGQEQVAGGEAQPD [G24D], 4.62; under NIVEYLIQEQPGQEQVAGGEAQPI [G24I], 4.03.
Same read-out and setting: next, NIVEYLIQEQPGQEQVAGGEAQPH [G24H]: 4.28; NIVEYLIQEQPGQEQVAGGEAQPS [G24S]: 3.86.
With NIVEYLIQEQPGQEQVAGGEVQPG [A21V], the protein stability index turned out to be 4.15.
As for NIVEYLIQEQPGQEQVAGGEFQPG [A21F], the protein stability index came to 4.41.
Still for that read-out and setting: under NIVEYLIQEQPGQEQVAGGEDQPG [A21D] stands 4.53; under NIVEYLIQEQPGQEQVAGGERQPG [A21R], 4.19.
Still for that read-out and setting: under NIVEYLIQEQPGQEQVAGGEGQPG [A21G] stands 3.86; under NIVEYLIQEQPGQEQVAGGEHQPG [A21H], 3.77; under NIVEYLIQEQPGQEQVAGGELQPG [A21L], 3.95.
NIVEYLIQEQPGQEQVAGGEPQPG [A21P]: the protein stability index was found to be 4.27.
The same measure, in the same setting: next, NIVEYLIQEQPGQEQVAGGETQPG [A21T]: 4.67; NIVEYLIQEQPGQEQVAGGEQQPG [A21Q]: 4.05; NIVEYLIQEQPGQEQVAGGENQPG [A21N]: 4.7.
On the same count and under the same terms, next, NIVEYLIQEQPGQEQVAGGEKQPG [A21K]: 4.28; NIVEYLIQEQPGQEQVAGGEIQPG [A21I]: 3.91.
On the same count and under the same terms, under NIVEYLIQEQPGQEQVAGGEWQPG [A21W] stands 3.03.
In the case of NIVEYLIQEQPGQEQVAGGEMQPG [A21M], the protein stability index was 4.16.
NIVEYLIQEQPGQEQVAGGEYQPG [A21Y]: the protein stability index came out at 4.03.
On the same count and under the same terms, next, NIVEYLIQEQPGQEQVAGGECQPG [A21C]: 4.09.
On the same count and under the same terms, under NIVEYLIQEQPGQEQVAGGESQPG [A21S] stands 3.83.
Same read-out and setting: next, NIVEYLIQEQPGQEQVAGGEEQPG [A21E]: 4.76.

The next data set covers variants of B2. The data set is described as above. Conditions: c terminus: a fixed tail appended.
As to YHIYVALEEEIERNKESGVFAPVY [P18G], the protein stability index was 2.46.
As for YHIYVALEESIERNKESPVFAPVY [E10S], the protein stability index worked out at 2.81.
Still for that read-out and setting: next, YHIYVALEEHIERNKESPVFAPVY [E10H]: 1.97; YHIYVALEEEIERNEESPVFAPVY [K15E]: 1.37.
On the same count and under the same terms, under KHIYVALEEEIERNKESPVFAPVY [Y1K] stands 2.57; under CHIYVALEEEIERNKESPVFAPVY [Y1C], 1.89; under YHIYVAMEEEIERNKESPVFAPVY [L7M], 1.62.
YHIYVAQEEEIERNKESPVFAPVY [L7Q]: the protein stability index was 2.16.
On the same count and under the same terms, under YHIYVATEEEIERNKESPVFAPVY [L7T] stands 1.88.
On to YHIYVALEEEIEANKESPVFAPVY [R13A], for which the protein stability index came out at 1.34.
On the same count and under the same terms, next, YHIYVALEEEIEMNKESPVFAPVY [R13M]: 1.4; YHIYVALEEEIERHKESPVFAPVY [N14H]: 2.14; YHIYVALEEEIQRNKESPVFAPVY [E12Q]: 1.95.
The same measure, in the same setting: next, YHIYVALEEEQERNKESPVFAPVY [I11Q]: 2.01; YHIYVALEEEIERNKESPVHAPVY [F20H]: 2.47; YHIYVALEEEIERNKESPVFQPVY [A21Q]: 2.41.
On the same count and under the same terms, next, YHIYMALEEEIERNKESPVFAPVY [V5M]: 2.79; YHIYSALEEEIERNKESPVFAPVY [V5S]: 2.67.
For the variant YHIYRALEEEIERNKESPVFAPVY [V5R], the protein stability index stood at 3.13.
Still for that read-out and setting: under YHIYIALEEEIERNKESPVFAPVY [V5I] stands 1.94.
Still for that read-out and setting: under YHIYVALEEEIERNKGSPVFAPVY [E16G] stands 2.04.
The same measure, in the same setting: under YHIYVALEEEIERNKMSPVFAPVY [E16M] stands 1.8.
As for YHIYVALEEEIERNKVSPVFAPVY [E16V], the protein stability index was determined as 2.14.
YHIYVALEEEIERNKWSPVFAPVY [E16W]: the protein stability index was 2.14.
Still for that read-out and setting: next, YHIYVALEEEIERNKNSPVFAPVY [E16N]: 2.25; YHIYVALEEEIERNKEDPVFAPVY [S17D]: 2.3; YHIYVALEEEIERNKESPVFAGVY [P22G]: 1.76.
The same measure, in the same setting: under YHIYVALEIEIERNKESPVFAPVY [E9I] stands 1.62.
Still for that read-out and setting: under YHIYVALEQEIERNKESPVFAPVY [E9Q] stands 1.75; under YHIYVALEKEIERNKESPVFAPVY [E9K], 2.14; under YCIYVALEEEIERNKESPVFAPVY [H2C], 1.73.
Take YHPYVALEEEIERNKESPVFAPVY [I3P]: the protein stability index was determined as 2.06.
Still for that read-out and setting: next, YHIYVALEEEIERNKESPHFAPVY [V19H]: 2.13.
The same measure, in the same setting: next, YHIYVALEEEIERNKESPVFAPWY [V23W]: 2.65; YHIYVALEEEIERNKESPVFAPQY [V23Q]: 1.99.
Take YHIYVALEEEIERNKESPVFAPEY [V23E]: the protein stability index was determined as 2.63.
As for YHIYVALQEEIERNKESPVFAPVY [E8Q], the protein stability index worked out at 3.23.

Values taken from the supplement of paper PMC10567573.
